Data on one substance can be found in IntAct's records for PubMed 23142979.

The target of the assay is DAXX, Q9UER7-1.
DAXX, Q9UER7-1, sequence (Q9UER7 whole entry): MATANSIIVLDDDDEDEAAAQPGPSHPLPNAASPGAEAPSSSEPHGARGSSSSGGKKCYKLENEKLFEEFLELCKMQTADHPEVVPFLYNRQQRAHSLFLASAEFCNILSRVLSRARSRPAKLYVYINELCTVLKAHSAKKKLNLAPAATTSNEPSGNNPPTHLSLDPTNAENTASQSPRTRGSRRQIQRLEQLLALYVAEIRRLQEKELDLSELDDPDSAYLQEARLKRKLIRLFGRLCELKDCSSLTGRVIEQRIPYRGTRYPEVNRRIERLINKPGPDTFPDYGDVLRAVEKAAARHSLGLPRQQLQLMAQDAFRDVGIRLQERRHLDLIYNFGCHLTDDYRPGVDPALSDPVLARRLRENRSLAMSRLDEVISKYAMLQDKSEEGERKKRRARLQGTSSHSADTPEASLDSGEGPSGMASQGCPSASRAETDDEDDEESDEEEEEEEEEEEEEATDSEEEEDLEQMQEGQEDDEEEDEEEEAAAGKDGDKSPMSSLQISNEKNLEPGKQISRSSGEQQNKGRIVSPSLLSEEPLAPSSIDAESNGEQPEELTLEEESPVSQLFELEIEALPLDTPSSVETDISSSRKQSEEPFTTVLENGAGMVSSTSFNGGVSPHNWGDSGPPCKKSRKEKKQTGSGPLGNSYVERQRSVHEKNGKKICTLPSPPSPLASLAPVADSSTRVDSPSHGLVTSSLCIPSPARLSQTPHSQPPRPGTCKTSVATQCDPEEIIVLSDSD

Consider “Histone H3.1 (Homo sapiens) (from UniProt P68431) S88A”, for which the “effect of a mutation on the interaction” value is reported as “increasing interaction strength”.
